Measurements as given in FireProtDB (doi:10.1002/prot.340090203).
Values joined by “and” are separate entries in the source; they are usually repeats but may differ in a detail not shown here. Equal values may be shown once.

B1: Tryptophan synthase alpha chain, P0A877 (parent)
chain: MERYESLFAQLKERKEGAFVPFVTLGDPGIEQSLKIIDTLIEAGADALELGIPFSDPLADGPTIQNATLRAFAAGVTPAQCFEMLALIRQKHPTIPIGLLMYANLVFNKGIDEFYAQCEKVGVDSVLVADVPVEESAPFRQAALRHNVAPIFICPPNADDDLLRQIASYGRGYTYLLSRAGVTGAENRAALPLNHLVAKLKEYNAAPPLQGFGISAPDQVKAAIDAGAAGAISGSAIVKIIEQHINEPEKMLAALKVFVQPMKAATRS

Variants of: B1
Settings: Escherichia coli (strain K12), reversible: yes, structure 1WQ5, whole UniProt chain shown
[1] = pH 7, 25 °C, GdnHCl, CD, Potassium phosphate 10 mM
[2] = pH 7, 25 °C, GdnHCl, CD, Potassium phosphate 10 mM, transition: 3
[3] = pH 9, Thermal, DSC, Sodium tetraborate 1 mM
[4] = pH 9, 54.1 °C, Thermal, DSC, Sodium tetraborate 1 mM, EDTA 1 mM

Row | Variant | ddG of mutation (higher = less stable) [1] [kcal/mol] | unfolding free energy [1] [kcal/mol] | ddG of mutation (higher = less stable) [2] [kcal/mol] | unfolding free energy [2] | Tm [3] [°C] | change of melting temperature, mutant - wild type (higher = more stable) [3] [°C] | heat capacity change of unfolding [3] [kcal/mol/K] | unfolding enthalpy (calorimetric) [3] [kcal/mol] | ddG of mutation (higher = less stable) [4] [kcal/mol] | heat capacity change of unfolding [4] [kcal/mol/K]
1 | MERYESLFAQLKERKEGAFVPFVTLGDPGIEQSLKIIDTLIEAGADALELGIPFSDPLADGPTIQNATLRAFAAGVTPAQCFEMLALIRQKHPTIPIGLLMYANLVFNKGIDEFYAQCEKVGVDSVLVADVPVEESAPFRQAALRHNVAPIFICPPNADDDLLRQIASYGRGYTYLLSRAGVTGAENRAALPLNHLVAKLKEYNAAAPLQGFGISAPDQVKAAIDAGAAGAISGSAIVKIIEQHINEPEKMLAALKVFVQPMKAATRS [P207A] | 1.8 | 7 | 2.2 | 2.4 kcal/mol | 47.4 | -6.7 | 4.9 | 95 | – | –
2 | MERYESLFAQLKERKEGAFVPFVTLGDGGIEQSLKIIDTLIEAGADALELGIPFSDPLADGPTIQNATLRAFAAGVTPAQCFEMLALIRQKHPTIPIGLLMYANLVFNKGIDEFYAQCEKVGVDSVLVADVPVEESAPFRQAALRHNVAPIFICPPNADDDLLRQIASYGRGYTYLLSRAGVTGAENRAALPLNHLVAKLKEYNAAPPLQGFGISAPDQVKAAIDAGAAGAISGSAIVKIIEQHINEPEKMLAALKVFVQPMKAATRS [P28G] | 1.6 | 7.2 | – | 2.3 kcal/mol and 4.9 kcal/mol | – | – | – | – | – | –
3 | MERYESLFAQLKERKEGAFVPFVTLGDAGIEQSLKIIDTLIEAGADALELGIPFSDPLADGPTIQNATLRAFAAGVTPAQCFEMLALIRQKHPTIPIGLLMYANLVFNKGIDEFYAQCEKVGVDSVLVADVPVEESAPFRQAALRHNVAPIFICPPNADDDLLRQIASYGRGYTYLLSRAGVTGAENRAALPLNHLVAKLKEYNAAPPLQGFGISAPDQVKAAIDAGAAGAISGSAIVKIIEQHINEPEKMLAALKVFVQPMKAATRS [P28A] | 2.5 | 6.3 | – | 2.2 kcal/mol and 4.1 kcal/mol | – | – | – | – | – | –
4 | MERYESLFAQLKERKEGAFVPFVTLGDPGIEQSLKIIDTLIEAGADALELGIPFSDPLADGPTIQNATLRAFAAGVTPAQCFEMLALIRQKHPTIPIGLLMYANLVFNKGIDEFYAQCEKVGVDSVLVADVGVEESAPFRQAALRHNVAPIFICPPNADDDLLRQIASYGRGYTYLLSRAGVTGAENRAALPLNHLVAKLKEYNAAPPLQGFGISAPDQVKAAIDAGAAGAISGSAIVKIIEQHINEPEKMLAALKVFVQPMKAATRS [P132G] | 0.6 | 8.2 | – | 3.6 kcal/mol and 4.6 kcal/mol | 51.8 | -2.3 | 5.1 | 117 | 0.78 | 5.1
